# Laboratory results reported in the supplement of paper PMC9112550, “Optimization of the antimicrobial peptide Bac7 by deep mutational scanning” (BMC Biology, 2022).
# System: Escherichia coli TOP10
# Experiment: shrunken log2 fold change of peptide-encoding DNA abundance (4.5 h post-induction vs induction); higher = less antimicrobial activity (less host growth inhibition)
# Settings: time post-induction: 4.5 h; library: site-saturation at positions 5, 18, 19, 20
# 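Further: peptides expressed intracellularly from a pBAD plasmid library in pooled LB shake-flask culture, induced with 0.3% L-arabinose, DNA abundance read by NGS, three biological replicates, DESeq2 with apeglm shrinkage.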
row,Sequence,shrunken log2 fold change
1,RRIRQRPPRLPRPRPRPAGEPRP,0.156
2,RRIRYRPPRLPRPRPRPNIIPRP,-1.01
3,RRIRMRPPRLPRPRPRPDQSPRP,0.0283
4,RRIRNRPPRLPRPRPRPCQLPRP,-0.0247
5,RRIRIRPPRLPRPRPRPQPMPRP,0.604
6,RRIRTRPPRLPRPRPRPGQCPRP,0.013
7,RRIRRRPPRLPRPRPRPMKPPRP,0.0733
8,RRIRARPPRLPRPRPRPQHTPRP,0.156
9,RRIRTRPPRLPRPRPRPAFNPRP,-0.121
10,RRIRWRPPRLPRPRPRPQHDPRP,0.202
11,RRIRLRPPRLPRPRPRPDQQPRP,-0.174
12,RRIRNRPPRLPRPRPRPQGEPRP,-0.422
13,RRIRGRPPRLPRPRPRPQRPPRP,0.406
14,RRIRNRPPRLPRPRPRPHAEPRP,0.00246
15,RRIRRRPPRLPRPRPRPSKMPRP,0.335
16,RRIRMRPPRLPRPRPRPWNMPRP,-0.0747
17,RRIRCRPPRLPRPRPRPPVHPRP,-0.112
18,RRIRSRPPRLPRPRPRPVCGPRP,0.548
19,RRIRTRPPRLPRPRPRPPHQPRP,0.237
20,RRIRERPPRLPRPRPRPTDAPRP,0.0786
21,RRIRSRPPRLPRPRPRPKELPRP,0.0175
22,RRIRTRPPRLPRPRPRPHMDPRP,-0.422
23,RRIRIRPPRLPRPRPRPHYFPRP,-0.173
24,RRIRTRPPRLPRPRPRPYHKPRP,-0.426
25,RRIRLRPPRLPRPRPRPQFAPRP,0.0774

row,Sequence,shrunken log2 fold change
1,RRIRNRPPRLPRPRPRPVQQPRP,0.171
2,RRIRGRPPRLPRPRPRPLLMPRP,1.22
3,RRIRHRPPRLPRPRPRPNLAPRP,0.0843
4,RRIRDRPPRLPRPRPRPCRAPRP,-0.221
5,RRIRPRPPRLPRPRPRPDEFPRP,-0.203
6,RRIRFRPPRLPRPRPRPNKWPRP,-0.266
7,RRIRYRPPRLPRPRPRPMSSPRP,-0.0121
8,RRIRKRPPRLPRPRPRPIYIPRP,-0.127
9,RRIRGRPPRLPRPRPRPADEPRP,0.239
10,RRIRSRPPRLPRPRPRPTDMPRP,0.0156
11,RRIRWRPPRLPRPRPRPFEIPRP,0.0217
12,RRIRVRPPRLPRPRPRPCHVPRP,-0.859
13,RRIRPRPPRLPRPRPRPTANPRP,0.297
14,RRIRFRPPRLPRPRPRPGKGPRP,-0.159
15,RRIRKRPPRLPRPRPRPTRLPRP,0.537
16,RRIRDRPPRLPRPRPRPHCGPRP,0.00511
17,RRIRFRPPRLPRPRPRPMIRPRP,-0.163
18,RRIRARPPRLPRPRPRPGLQPRP,0.577
19,RRIRVRPPRLPRPRPRPCMPPRP,0.112
20,RRIRVRPPRLPRPRPRPDYHPRP,-0.558
21,RRIRHRPPRLPRPRPRPHYTPRP,-0.903
22,RRIRCRPPRLPRPRPRPGYSPRP,-0.483
23,RRIRIRPPRLPRPRPRPVCCPRP,-0.0749
24,RRIRARPPRLPRPRPRPHNLPRP,-0.201
25,RRIRVRPPRLPRPRPRPNSPPRP,-0.271

row,Sequence,shrunken log2 fold change
1,RRIRDRPPRLPRPRPRPHFVPRP,-0.193
2,RRIRRRPPRLPRPRPRPDICPRP,0.0657
3,RRIRWRPPRLPRPRPRPHLPPRP,-0.166
4,RRIRKRPPRLPRPRPRPDSNPRP,0.0348
5,RRIRFRPPRLPRPRPRPPSEPRP,0.28
6,RRIRHRPPRLPRPRPRPVIPPRP,-0.0562
7,RRIRTRPPRLPRPRPRPLYSPRP,-0.575
8,RRIRVRPPRLPRPRPRPGNQPRP,-0.284
9,RRIRGRPPRLPRPRPRPARAPRP,1.03
10,RRIRLRPPRLPRPRPRPTGVPRP,-0.0506
11,RRIRARPPRLPRPRPRPEWTPRP,0.591
12,RRIRQRPPRLPRPRPRPDEQPRP,0.0145
13,RRIRTRPPRLPRPRPRPAARPRP,0.374
14,RRIRIRPPRLPRPRPRPQNDPRP,-0.296
15,RRIRSRPPRLPRPRPRPANRPRP,0.223
16,RRIRRRPPRLPRPRPRPLEIPRP,0.0856
17,RRIRLRPPRLPRPRPRPHMAPRP,0.0118
18,RRIRGRPPRLPRPRPRPWYCPRP,-0.408
19,RRIRLRPPRLPRPRPRPADQPRP,0.0203
20,RRIRWRPPRLPRPRPRPTLHPRP,0.132
21,RRIRSRPPRLPRPRPRPAYAPRP,0.0867
22,RRIRIRPPRLPRPRPRPFIHPRP,-0.872
23,RRIRTRPPRLPRPRPRPPSSPRP,-0.00871
24,RRIRMRPPRLPRPRPRPHKFPRP,0.0123
25,RRIRCRPPRLPRPRPRPKITPRP,-0.573
